The values below come from patent US6872537 (University of California, dated 2005).

First the molecules themselves.
B1: baculovirus-expressed S. purpuratus katanin p80 subunit with N-terminal His(6) tag (other)
chain: HHHHHHMATKRAWKLQELVAHSSNVNCLALGPMSGRVMVTGGEDKKVNLWAVGKQNCIISLSGHTSPVDSVKFNSSEELVVAGSQSGTMKIYDLEPAKIVRTLTGHRNSIRCMDFHPFGEFVASGSTDTNVKLWDVRRKGCIYTYKGHSDQVNMIKFSPDGKWLVTASEDTTIKLWDLTMGKLFQEFKNHTGGVTGIEFHPNEFLLASGSSDRTVQFWDLETFQLVSSTSPGASAVRSISFHPDGSYLFCSSQDMLHAFGWEPIRCFDTFSVFWGKVADTVIASTQLIGASFNATNVSVYVADLSRMSTTGIAQEPQSQPSKTPSGGAEEVPSKPLTASGRKNFVRERPHTTSSKQRQPDVKSEPERQSPTQDEGVKDDDATDIKDPDSYAKIFSPKTRVDHSPERNAQPFPAPLDVPGAQEPEPFKHPPKPAAAAAVAPVSRAPAPSASDWQPAQANPAPNRVPAATKPVPAQEVAPSRKPDPISTIIPSDRNKPANLDMDAFLPPAHAQQAPRVNAPASRKQSDSERIEGLRKGHDSMCQVLSSRHRNLDVVRAIWTAGDAKTSVESVVNMKDQAILVDILNIMLLKKSLWNLDMCVVVLPRLKELLSSKYENYVHTSCACLKLILKNFTSLFNQNIKCPPSGIDITREERYNKCSKCYSYLIATRGYVEEKQHVSGKLGSSFRELHLLLDQLE
notes: Expressed from pFastBac HT in Sf9 cells; also called p80 katanin; recombinant p80
B2: baculovirus-expressed S. purpuratus katanin p60 subunit with N-terminal His(6) tag (enzyme)
chain: HHHHHHMSVDEICENTKMGREYALLGNYETSLVYYQGVLQQIQKLLTSVHEPQRKHQWQTIRQELSQEYEHVKNITKTLNGFKSEPAAPEPAPNHGRAAPFSHHQHAAKPAAAEPARDPDVWPPPTPVDHRPSPPYQRAARKDPPRRSEPSKPANRAPGNDRGGRGPSDRRGDARSGGGGRGGARGSDKDKNRGGKSDKDKKAPSGEEGDEKKFDPAGYDKDLVENLERDIVQRNPNVHWADIAGLTEAKRLLEEAVVLPLWMPDYFKGIRRPWKGVLMVGPPGTGKTMLAKAVATECGTTFFNVSSASLTSKYHGESEKLVRLLFEMARFYAPSTIFIDEIDSICSKRGTGSEHEASRRVKSELLIQMDGVSGPSAGEESSKMVMVLAATNFPWDIDEALRRRLEKRIYIPLPEIDGREQLLRINLKEVPLADDIDLKSIAEKMDGYSGADITNVCRDASMMAMRRRIQGLRPEEIRHIPKEELNQPSTPADFLLALQKVSKSVGKEDLVKYMAWMEEFGSV
notes: Expressed from pFastBac HT in Sf9 cells; also called p60 katanin; recombinant p60

Series [1] deals with B2. The experiment in a line: Ni-NTA purification of co-expressed His-tagged subunits, Coomassie-stained SDS-PAGE.
In series [2] the target is B1. The experiment in a line: co-immunoprecipitation from insect cells co-infected with p60 and p80 baculoviruses, SDS-PAGE with Coomassie. As for the experimental part: 6xHis-tagged (SEQ ID NO:14) katanin subunits were purified from lysates of baculovirus-infected insect cells by binding to Ni^2+-NTA Superflow followed by elution with imidazole, as described in the Experimental Procedures. […] Proteins bound to the resin were analyzed by SDS-PAGE followed by staining with Coomassie.
After equilibration in TBST, 20–40 μl of antibody beads were added to katanin samples diluted in TBST containing 1–2 mg/ml soybean trypsin inhibitor (SBTI). The immunoprecipitations were incubated at 4° C. for 1–2 hr, washed five times with 1 ml of ice-cold TBST, and eluted in SDS-containing sample buffer.

Series [3] concerns the molecule itself. The experiment in a line: rotary-shadowing electron microscopy of recombinant p60 on mica (self-association into rings).

For B1, the “p60:p80 molar ratio in the purified co-expressed protein” value in series [1] is around 0.9 mol p80 per mol p60. Take B2: the binding result in series [2] and in series [3] was “binds” in each case.
